Where no end group is shown, it is not given here.
T1: BSA conjugated CD28 stalk region dimeric peptide (human, also: dimer through the cysteine, BSA conjugated via C-terminal Lys by hydrazide chemistry)
T1 construct: Peptide used for immunization and, BSA conjugated, as ELISA antigen for M9; also called stalk region peptide
T1 peptide: GKHLCPSPLFPGPSKPK

T2: Biotin conjugated L145K CD28 stalk region dimeric peptide (human, C-terminal biotin; dimer through Cysteine 141)
T2 peptide: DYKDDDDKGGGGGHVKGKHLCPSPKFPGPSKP

B1: antibody M9 (antibody, V domains shown)
VH: DVKLVESGGGLVKLGGSLKLSCVASGFTFSSYYMSWVRQTPEKRLEWVATISDGGDNTYYAGTVTGRFTISRDFAKNTLYLQMNSLTSEDTAVYYCARIHWPYYFDSWGQGTTLTVSS
VL: QFVLSQSPAILSASPGEMLTMTCRASSSVSYMNWYQQKPGSSPKPWIYATSDLASGVPARFSGSGSGTSYSLTISRVEAEDAATYYCQQWSSHPPTFGGGTKLEIR
notes: Full-size mouse antibody raised in CD1 mice against the dimeric stalk peptide; detected with anti mouse IgG; also called clone M9; anti-cleavage antibody M9
B2: VHH clone 4A1 (VHH)
VHH: QVQLVESGGGLVQAGGSLRLSCAASGSIFSINAMGWYRQAPGKQRERVAAITSGGSTNYADSVKGRFTISRDNAKNTVYLQMNNLEPRDAGVYYCVVDLYGEDYWIWGQGTQVTVSS
B3: VHH clone 4A4 (VHH)
VHH: EVQLVESGGGLVQAGGSLRLSCAASGSLFSINAMAWYRQAPGKQRELVAAITSSGSTNYANSVKGRFTVSRDNAKNTMYLQMNSLKPEDTAVYYCVVDEYGSDYWIWGQGTQVTVSS
B4: VHH clone 2A1 (VHH)
VHH: EVQLVESGGGLVQAGESLRLSCAASGSIASINAMGWYRQAPGSQRELVAAISGGGDTYYADSVKGRFTISRDNAKTTVYLQMNSLRPEDTAVYYCVVDLYGSDYWDWGQGTQVTVSS
notes: also called VHH #2A1

What was measured:
[1] = target: T1, BSA conjugated CD28 stalk region …; experiment: ELISA, antigen immobilized, serial dilution of M9, anti mouse IgG-HRP (FIG. 12A)
[2] = target: T2, Biotin conjugated L145K CD28 stalk …; experiment: direct ELISA on L145K dimeric stalk peptide on neutravidin plates, anti His tag-HRP (FIG. 23)
[3] = target: T3, membranal human CD28 (full-length human CD28 on cells) (human, UniProt P10747 19-220); experiment: FACS, FITC conjugated VHH on HEK cells overexpressing human CD28 (FIG. 14)
T3 construct: in the functional assays also the CD28 of human CD3 or CD4 T cells and PBMC; also called mCD28; membranal CD28

Binder	binding result [1]	binding result [2]	binding result [3]
B1	binds		
B2		no binding (tested: 0.2-5 µg/mL)	
B3		no binding (tested: 0.2-5 µg/mL)	
B4		no binding (tested: 0.2-5 µg/mL)	binds

— patent US20220169732A1 (BIOND BIOLOGICS, published 2022)
